The target in experiment [1] is T1, human IL6 (Peprotech catalogue number 200-06) (human, UniProt P05231 30-212).
T1 construct: Bought protein
The experiment in a line: Biacore, GH6L IgG1 captured on anti-light chain antibody immobilised on a CM5 chip (no GMCSF), concentration series of IL6 injected; five sensorgrams with fits [contd.]. The text has this: (§1) The antibody was expressed in human IgG1 format using standard mammalian expression vectors bearing GH6L heavy and light chain and signal peptide cDNAs, by transient transfection of HEK293-6E cells. Expressed IgG was affinity-purified using protein A resin. For Biacore™ analysis, GMCSF (Peprotech catalogue number 300-03) or an anti-light chain capture antibody was immobilized onto a CM5 chip using amine-coupling, resulting in 4000 RU and 12000 RU immobilized GMCSF and anti-light chain capture antibody, respectively.
In general terms: Surface plasmon resonance follows binding to a sensor surface in real time, without labels.

The target of experiment [2] is T1, human IL6 (Peprotech catalogue number …). The experiment in a line: Biacore, GH6L IgG1 captured on GMCSF immobilised on a CM5 chip (GMCSF bound at the same time), concentration series of IL6 injected; five sensorgrams with fits [contd.].
From the text: as §1

Experiment [3] deals with T2, human VEGF (Peprotech catalogue number 100-20) (human, UniProt P15692-4 27-191).
T2 construct: Bought protein
T2 sequence (P15692 other isoform, or with tags, fused parts or gaps limits assumed): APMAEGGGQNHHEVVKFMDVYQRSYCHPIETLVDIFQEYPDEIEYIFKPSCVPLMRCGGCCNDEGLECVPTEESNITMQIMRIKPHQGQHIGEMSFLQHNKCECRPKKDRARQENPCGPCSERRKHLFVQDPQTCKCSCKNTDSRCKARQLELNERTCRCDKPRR
The experiment in a line: SPR (Biacore), Fab captured by anti-light chain antibody on CM5 chip, VEGF 0-450 nM in flow. On the procedure: Antibody libraries were selected against human VEGF (Peprotech catalogue number 100-20) and human IL6 (Peprotech catalogue number 200-06). Of the isolated parental antibody clones, IL6P and VEGFP were combined into the bi-specific antibody clone VH6L. […] To assess the affinities of parental and bi-specific antibodies, Biacore™ analysis was performed in order to analyze the binding behaviour of IL6P, VH6L and VEGFP. For this, an anti-light chain capture antibody was immobilized onto a CM5 chip using amine-coupling, resulting in 12000 RU. Fab fragments were captured to a level of 400-500 RU and a concentration series of IL6 and VEGF, ranging from 0 to 450 nM, was passed over the chip. As depicted in FIG. 7, clone IL6P binds to IL6, but not to VEGF, clone VEGFP binds to VEGF, but not to IL6, and the combined clone VH6L binds to both IL6 and VEGF.

From patent publication US9944719 (HOFFMAN LA ROCHE, dated 2018) come the findings set out here.

Where a chain is given by its changes, count along the chain named.

B1: GH6L (bispecific antibody, V domains shown)
VH: WVQLVESGGGLVQPGGSLRLSCAAKGALFSTYAMSWIRQAPGKGLEWIGQISGSGGSTVYNYNVLGRFTISRDNSKNTLYLQMNSLRAEDTAVYYCARDSGYFDIWGQGTLVTVSS
VL: ATQRTQSPSSLSASVGDRVTITCRALWHISSYLAWYQQKPGKAPKLLIYAASWLYWDVPSRFSGSGSGTDFTLTISSLQPEDFATYYCQQYSGLPYTFGQGTKVEIKR
notes: Specific for human GMCSF and human IL6, with two paratopes in one VH-VL pair; also called bi-specific antibody clone GH6L
What is called koff is the first-order rate constant of dissociation. Usually kon stands for the rate constant with which the complex forms. A high value points to fast association. As to B1, the off-rate (koff) was found to be 0.0017 s⁻¹ in experiment [1] and 0.00045 s⁻¹ in experiment [2]. For the same molecule, the kon in experiment [1] was 57000 M⁻¹ s⁻¹; in experiment [2] it was 24000 M⁻¹ s⁻¹.

B2: VH6L (Fab, V domains shown)
VH: B1 VH with W1Y, V2Y, K25D, A27F, T31G, S100T, I105H
VL: B1 VL with A1N, T2I, R4K, W53H, Y55H, W56Y, D57G
notes: Bi-specific clone (VEGF and IL6, two paratopes in one VH-VL pair) combined from IL6P and VEGFP; Tested as a Fab fragment; also called bi-specific antibody clone VH6L; combined clone VH6L
Usually Kd stands for the constant that tells how readily two partners part at equilibrium. A low value points to tighter binding. Molecule B2 showed a Kd in experiment [3] of 7.8 nM.

B3: VEGFP (Fab, V domains shown)
VH: B1 VH with W1Y, V2Y, K25D, A27F, T31G, V59Y, Y62D, S100T, I105H
VL: B1 VL with A1D, R4M, L26S, W27Q, H28S, W53H, Y55H, W56Y, D57G, G93S
notes: Parental anti-VEGF clone, tested as a Fab fragment captured by an anti-light chain antibody in Biacore; the constant parts are human CH1 and CK; also called parental antibody VEGFP; clone VEGFP
B3 gave a dissociation constant (Kd) in experiment [3] of 11 nM.
